The chains are these.
B1: HEEH_KT_rd6_0790 (parent)
chain: SEEEEEEWRRAKERGEEIIILGILWKPNDEEAERRIKEALRRV
B2: r16_88_TrROS_Hall (parent)
chain: EVIELKIKFKTPEQREKLKEIAKKLNAEVVEEKDGEVIIRFKTPEQAERALKEAEKLGAEVEL

One data set covers variants of B1. Nature of the data set: folding stability dG (cDNA display proteolysis); higher = more stable. Particulars: PBS, room temperature.
As for SEEEEEEWRRAKERGEEIIILGILWKPNDEEAERRIKEVLRRV [A39V], the “folding stability dG” value turned out to be 1.6 kcal/mol.

Turning to SEEEEEEWRRAKERGEEIIILGILWKPNDEEAERRIKERLRRV [A39R], the “folding stability dG” value was 1.88 kcal/mol.

As for SEEEEEEWRRAKERGEEIIILGILWKPNDEEAERRIKEQLRRV [A39Q], the “folding stability dG” value amounted to 1.6 kcal/mol.

For the variant SEEEEEEWRRAKERGEEIIILGILWKPNDEEAERRIKEFLRRV [A39F], the “folding stability dG” value amounted to 1.69 kcal/mol.

For SEEEEEEWRRAKERGEEIIILGILWKPNDEEAERRIKEYLRRV [A39Y], the “folding stability dG” value was 1.56 kcal/mol.

Take SEEEEEEWRRAKERGEEIIILGILWKPNDEEAERRIKECLRRV [A39C]: the “folding stability dG” value turned out to be 2.06 kcal/mol.

SEEEEEEWRRAKERGEEIIILGILWKPNDEEAERRIKEELRRV [A39E]: the “folding stability dG” value turned out to be 1.53 kcal/mol.

Regarding SEEEEEEWRRAKERGEEIIILGILWKPNDEEAERRIKEHLRRV [A39H], the “folding stability dG” value is 1.38 kcal/mol.

With SEEEEEEWRRAKERGEEIIILGILWKPNDEEAERRIKEGLRRV [A39G], the “folding stability dG” value was 1.32 kcal/mol.

In the case of SEEEEEEWRRAKERGEEIIILGILWKPNDEEAERRIKEWLRRV [A39W], the “folding stability dG” value turned out to be 1.7 kcal/mol.

In the case of SEEEEEEWRRAKERGEEIIILGILWKPNDEEAERRIKEMLRRV [A39M], the “folding stability dG” value stood at 2.1 kcal/mol.

As to SEEEEEEWRRAKERGEEIIILGILWKPNDEEAERRIKEDLRRV [A39D], the “folding stability dG” value is 0.764 kcal/mol.

Regarding SEEEEEEWRRAKERGEEIIILGILWKPNDEEAERRIKESLRRV [A39S], the “folding stability dG” value stood at 1.26 kcal/mol.

Regarding SEEEEEEWRRAKERGEEIIILGILWKPNDEEAERRIKENLRRV [A39N], the “folding stability dG” value is 1.01 kcal/mol.

As for SEEEEEEWRRAKERGEEIIILGILWKPNDEEAERRIKEPLRRV [A39P], the “folding stability dG” value was 0.322 kcal/mol.

On to SEEEEEEWRRAKERGEEIIILGILWKPNDEEAERRIKELLRRV [A39L], for which the “folding stability dG” value is 2.06 kcal/mol.

Regarding SEEEEEEWRRAKERGEEIIILGILWKPNDEEAERRIKETLRRV [A39T], the “folding stability dG” value worked out at 1.31 kcal/mol.

Take SEEEEEEWRRAKERGEEIIILGILWKPNDEEAERRIKEKLRRV [A39K]: the “folding stability dG” value was found to be 1.79 kcal/mol.

As to SEEEEEEWRRAKERGEEIIILGILWKPNDEEAERRIKEALRIV [R42I], the “folding stability dG” value was found to be 2 kcal/mol.

SEEEEEEWRRAKERGEEIIILGILWKPNDEEAERRIKEALRHV [R42H]: the “folding stability dG” value came to 1.79 kcal/mol.

Consider SEEEEEEWRRAKERGEEIIILGILWKPNDEEAERRIKEALRGV [R42G], for which the “folding stability dG” value was determined as 1.88 kcal/mol.

Take SEEEEEEWRRAKERGEEIIILGILWKPNDEEAERRIKEALRQV [R42Q]: the “folding stability dG” value worked out at 2.09 kcal/mol.

Turning to SEEEEEEWRRAKERGEEIIILGILWKPNDEEAERRIKEALRVV [R42V], the “folding stability dG” value came out at 1.95 kcal/mol.

As to SEEEEEEWRRAKERGEEIIILGILWKPNDEEAERRIKEALRFV [R42F], the “folding stability dG” value amounted to 1.77 kcal/mol.

Regarding SEEEEEEWRRAKERGEEIIILGILWKPNDEEAERRIKEALRPV [R42P], the “folding stability dG” value amounted to 1.33 kcal/mol.

SEEEEEEWRRAKERGEEIIILGILWKPNDEEAERRIKEALRWV [R42W]: the “folding stability dG” value was 1.74 kcal/mol.

Take SEEEEEEWRRAKERGEEIIILGILWKPNDEEAERRIKEALRAV [R42A]: the “folding stability dG” value was 2.11 kcal/mol.

With SEEEEEEWRRAKERGEEIIILGILWKPNDEEAERRIKEALRLV [R42L], the “folding stability dG” value is 2.09 kcal/mol.

In the case of SEEEEEEWRRAKERGEEIIILGILWKPNDEEAERRIKEALREV [R42E], the “folding stability dG” value was 1.75 kcal/mol.

With SEEEEEEWRRAKERGEEIIILGILWKPNDEEAERRIKEALRTV [R42T], the “folding stability dG” value was 1.83 kcal/mol.

In the case of SEEEEEEWRRAKERGEEIIILGILWKPNDEEAERRIKEALRKV [R42K], the “folding stability dG” value was 2.14 kcal/mol.

Turning to SEEEEEEWRRAKERGEEIIILGILWKPNDEEAERRIKEALRSV [R42S], the “folding stability dG” value came out at 1.92 kcal/mol.

As to SEEEEEEWRRAKERGEEIIILGILWKPNDEEAERRIKEALRCV [R42C], the “folding stability dG” value was determined as 1.95 kcal/mol.

SEEEEEEWRRAKERGEEIIILGILWKPNDEEAERRIKEALRNV [R42N]: the “folding stability dG” value is 1.84 kcal/mol.

For SEEEEEEWRRAKERGEEIIILGILWKPNDEEAERRIKEALRDV [R42D], the “folding stability dG” value came out at 1.56 kcal/mol.

Take SEEEEEEWRRAKERGEEIIILGILWKPNDEEAERRIKEALRYV [R42Y]: the “folding stability dG” value came to 1.77 kcal/mol.

On to SEEEEEEWRRAKERGEEIIILGILWKPNDEEAERRIKEALRMV [R42M], for which the “folding stability dG” value is 1.98 kcal/mol.

For the variant SEEEEEEWRRAKERGEEIIILGILWKPNDEEAERRIKHALRRV [E38H], the “folding stability dG” value was 1.39 kcal/mol.

With SEEEEEEWRRAKERGEEIIILGILWKPNDEEAERRIKKALRRV [E38K], the “folding stability dG” value stood at 1.34 kcal/mol.

With SEEEEEEWRRAKERGEEIIILGILWKPNDEEAERRIKWALRRV [E38W], the “folding stability dG” value came out at 1.02 kcal/mol.

With SEEEEEEWRRAKERGEEIIILGILWKPNDEEAERRIKVALRRV [E38V], the “folding stability dG” value was determined as 1.46 kcal/mol.

As to SEEEEEEWRRAKERGEEIIILGILWKPNDEEAERRIKFALRRV [E38F], the “folding stability dG” value stood at 1.03 kcal/mol.

For SEEEEEEWRRAKERGEEIIILGILWKPNDEEAERRIKNALRRV [E38N], the “folding stability dG” value was found to be 1.61 kcal/mol.

For SEEEEEEWRRAKERGEEIIILGILWKPNDEEAERRIKTALRRV [E38T], the “folding stability dG” value came to 1.41 kcal/mol.

As to SEEEEEEWRRAKERGEEIIILGILWKPNDEEAERRIKGALRRV [E38G], the “folding stability dG” value worked out at 1.46 kcal/mol.

Regarding SEEEEEEWRRAKERGEEIIILGILWKPNDEEAERRIKPALRRV [E38P], the “folding stability dG” value turned out to be 1.11 kcal/mol.

As to SEEEEEEWRRAKERGEEIIILGILWKPNDEEAERRIKIALRRV [E38I], the “folding stability dG” value came out at 1.91 kcal/mol.

Regarding SEEEEEEWRRAKERGEEIIILGILWKPNDEEAERRIKMALRRV [E38M], the “folding stability dG” value worked out at 1.47 kcal/mol.

As for SEEEEEEWRRAKERGEEIIILGILWKPNDEEAERRIKLALRRV [E38L], the “folding stability dG” value came to 1.39 kcal/mol.

Regarding SEEEEEEWRRAKERGEEIIILGILWKPNDEEAERRIKYALRRV [E38Y], the “folding stability dG” value turned out to be 0.909 kcal/mol.

Consider SEEEEEEWRRAKERGEEIIILGILWKPNDEEAERRIKQALRRV [E38Q], for which the “folding stability dG” value amounted to 1.93 kcal/mol.

For SEEEEEEWRRAKERGEEIIILGILWKPNDEEAERRIKSALRRV [E38S], the “folding stability dG” value turned out to be 1.67 kcal/mol.

Take SEEEEEEWRRAKERGEEIIILGILWKPNDEEAERRIKRALRRV [E38R]: the “folding stability dG” value amounted to 1.52 kcal/mol.

A further data set covers variants of B2. The description is as above. Conditions: PBS, room temperature.
Regarding CVIELKIKFKTPEQREKLKEIAKKLNAEVVEEKDGEVIIRFKTPEQAERALKEAEKLGAEVEL [E1C], the “folding stability dG” value came out at 4.27 kcal/mol.

For DVIELKIKFKTPEQREKLKEIAKKLNAEVVEEKDGEVIIRFKTPEQAERALKEAEKLGAEVEL [E1D], the “folding stability dG” value came to 4.2 kcal/mol.

With GVIELKIKFKTPEQREKLKEIAKKLNAEVVEEKDGEVIIRFKTPEQAERALKEAEKLGAEVEL [E1G], the “folding stability dG” value was found to be 4.57 kcal/mol.

On to AVIELKIKFKTPEQREKLKEIAKKLNAEVVEEKDGEVIIRFKTPEQAERALKEAEKLGAEVEL [E1A], for which the “folding stability dG” value came to 4.45 kcal/mol.

Consider FVIELKIKFKTPEQREKLKEIAKKLNAEVVEEKDGEVIIRFKTPEQAERALKEAEKLGAEVEL [E1F], for which the “folding stability dG” value amounted to 4.33 kcal/mol.

The values above are taken from the MegaScale stability set (Tsuboyama et al. 2023).
